Measured values from patent US12528864.
Where a chain is given by its changes, count along the chain named.

B1: 42Y073-1A01-100 (antibody, V domains shown)
VH: QVQLVQSGAEVKKPGASVKVSCKASGYTFTTYRMHWVRQAPGQGLEWMGIINPSGGLTQYAQKFQGRVTMTRDTSTSTVYMELSSLRSEDTAVYYCARETAYYTTKGNWFDPWGQGTLVTVSS
VL: DIQMTQSPSSLSASVGDRVTITCRASQSISSYLNWYQQKPGKAPKLLIYAASSLQSGVPSRFSGSGSGTDFTLTISSLQPEDFATYYCQQSLYPPRTFGGGTKVEIK
B2: 42Y073-1A01-103 (antibody, V domains shown)
VH: B1 VH with T31A, R33Q, S54A, L57W, Q59S
VL: B1 VL
B3: 42Y073-1A01-191 (antibody, V domains shown)
VH: B1 VH with T31K, S54Q, L57S, Q59S, S123A
VL: B1 VL
B4: 42Y073-86F04-3 (antibody, V domains shown)
VH: QVQLVQSGAEVKKPGSSVKVSCKASGGTFSYNAISWVRQAPGQGLEWMGGIIPIMGTARYAQKFQGRVTITADESTSTAYMELSSLRSEDTAVYYCARLLGESGMDVWGQGTTVTVSS
VL: B1 VL with S91P, L92Y, Y93F, P94S, R96P
B5: 42Y073-86F04-4 (antibody, V domains shown)
VH: B4 VH with S30E, Y31S, N32E, M55F, T57R
VL: B1 VL with S91P, L92Y, Y93F, P94S, R96P
B6: 42Y073-86F04-5 (antibody, V domains shown)
VH: B4 VH with Y31S, N32H, M55F, T57R, A58G, R59K
VL: B1 VL with S91P, L92Y, Y93F, P94S, R96P
B7: 42Y073-86F04-6 (antibody, V domains shown)
VH: B4 VH with Y31G, N32H, M55F, T57R
VL: B1 VL with S91P, L92Y, Y93F, P94S, R96P
B8: 42Y073-86F04-18 (antibody, V domains shown)
VH: B4 VH with Y31S, N32R
VL: B1 VL with S91P, L92Y, Y93F, P94S, R96P
B9: 42Y073-86F08-3 (antibody, V domains shown)
VH: QVQLVQSGAEVKKPGSSVKVSCKASGGTFVNYAISWVRQAPGQGLEWMGGIIPALGTANYAQKFQGRVTITADESTSTAYMELSSLRSEDTAVYYCARGAGYYGDKDPMDVWGQGTTVTVSS
VL: DIQLTQSPSSLSASVGDRVTITCRASQSISSYLNWYQQKPGKAPKLLIYAASSLQSGVPSRFSGSGSGTDFTLTISSLQPEDFATYYCQQVLHTITFGGGTKVEIK
B10: 42Y073-86F08-4 (antibody, V domains shown)
VH: B9 VH with V30S, N31E, S35H, G50N, A54I, L55F, N59G
VL: B9 VL
B11: 42Y073-86F08-8 (antibody, V domains shown)
VH: B9 VH with V30W, N31L, A54Q
VL: B9 VL
B12: 42Y073-1A01-85 (antibody, V domains shown)
VH: B1 VH with T31S, R33P, L57F, Q59S, S123A
VL: B1 VL
B13: 42Y073-86F08-17 (antibody, V domains shown)
VH: B9 VH with V30R, N31E, A54V, L55F
VL: B9 VL
B14: 42Y073-86F08-22 (antibody, V domains shown)
VH: B9 VH with S16A, G27Y, V30D, N31S, I34M, S35H, A54I, L55F, N59W
VL: B9 VL
B15: 42Y073-86F08-47 (antibody, V domains shown)
VH: B9 VH with V30S, N31Q, S35H, G50V, A54I, L55F, T57K
VL: B9 VL

The binders below were run against human CD96, native, on primary human T cells (human) (UniProt P40200) (assay: flow cytometry on primary human CD3+ T cells).

**Q.** How did the EC50 turn out when B1 was run?
**A.** 0.01 nM

**Q.** B2 was tested. Which EC50 did it give?
**A.** 0.01 nM

**Q.** How did the EC50 turn out when B3 was run?
**A.** 0.38 nM

**Q.** How did the EC50 turn out when B4 was run?
**A.** 0.09 nM

**Q.** For B5, which EC50 is on record?
**A.** 0.05 nM

**Q.** For B6, which EC50 is on record?
**A.** 0.05 nM

**Q.** With B7 as the binder, how does the EC50 read?
**A.** 0.01 nM

**Q.** B8 was tested. Which EC50 did it give?
**A.** 0.01 nM

**Q.** How did the EC50 turn out when B9 was run?
**A.** 0.05 nM

**Q.** How did the EC50 turn out when B10 was run?
**A.** 0.01 nM

**Q.** For B11, which EC50 is on record?
**A.** 0.04 nM

**Q.** With B12 as the binder, how does the EC50 read?
**A.** 0.32 nM

**Q.** With B13 as the binder, how does the EC50 read?
**A.** 0.01 nM

**Q.** With B14 as the binder, how does the EC50 read?
**A.** 0.18 nM

**Q.** B15 was tested. Which EC50 did it give?
**A.** 0.03 nM
